What was measured:
[1] = target: Cytochrome b-c1 complex subunit 6, mitochondrial (Homo sapiens) (UniProt P07919); assay: PIF-agarose affinity extraction of normal human liver lysate 1, LC-MS/MS
[2] = target: Protein disulfide-isomerase A4 (Homo sapiens) (UniProt P13667); assay: as above
[3] = target: Tropomyosin alpha-4 chain (Homo sapiens) (UniProt P67936); assay: as above
[4] = target: Alpha-actinin-4 (Homo sapiens) (UniProt O43707); assay: as above
[5] = target: Protein disulfide-isomerase (Homo sapiens) (UniProt P07237); assay: as above
[6] = target: Membrane-associated progesterone receptor component 1 (Homo sapiens) (UniProt O00264); assay: as above
[7] = target: Cytochrome b5 (Homo sapiens) (UniProt P00167); assay: as above
[8] = target: Alcohol dehydrogenase 4 (Homo sapiens) (UniProt P08319); assay: as above
[9] = target: Calreticulin (Homo sapiens) (UniProt P27797); assay: as above
[10] = target: Activated RNA polymerase II transcriptional coactivator p15 (Homo sapiens) (UniProt P53999); assay: as above
[11] = target: Cytosolic 10-formyltetrahydrofolate dehydrogenase (Homo sapiens) (UniProt O75891); assay: as above
[12] = target: Transitional endoplasmic reticulum ATPase (Homo sapiens) (UniProt P55072); assay: as above
[13] = target: Cytochrome b-c1 complex subunit 6, mitochondrial (Homo sapiens) (UniProt P07919); assay: PIF-agarose affinity extraction of normal human liver lysate 3, LC-MS/MS
[14] = target: Protein disulfide-isomerase A4 (Homo sapiens) (UniProt P13667); assay: as above
[15] = target: Enoyl-CoA hydratase domain-containing protein 2, mitochondrial (Homo sapiens) (UniProt Q86YB7); assay: as above
[16] = target: Peroxiredoxin-1 (Homo sapiens) (UniProt Q06830); assay: as above
[17] = target: Parathymosin (Homo sapiens) (UniProt P20962); assay: as above
[18] = target: Calmodulin (Homo sapiens) (UniProt P0DP23); assay: as above
[19] = target: Protein disulfide-isomerase A3 (Homo sapiens) (UniProt P30101); assay: as above
[20] = target: Tropomyosin alpha-4 chain (Homo sapiens) (UniProt P67936); assay: as above
Vimentin (Homo sapiens) = Vimentin (Homo sapiens) (UniProt P08670); assay: as above
[21] = target: Alpha-actinin-4 (Homo sapiens) (UniProt O43707); assay: as above
[22] = target: Protein disulfide-isomerase (Homo sapiens) (UniProt P07237); assay: as above
[23] = target: Membrane-associated progesterone receptor component 1 (Homo sapiens) (UniProt O00264); assay: as above
[24] = target: Hepatoma-derived growth factor (Homo sapiens) (UniProt P51858); assay: as above
[25] = target: Cytochrome b5 (Homo sapiens) (UniProt P00167); assay: as above
[26] = target: Alcohol dehydrogenase 4 (Homo sapiens) (UniProt P08319); assay: as above
[27] = target: Endoplasmin (Homo sapiens) (UniProt P14625); assay: as above
[28] = target: Calreticulin (Homo sapiens) (UniProt P27797); assay: as above
[29] = target: Activated RNA polymerase II transcriptional coactivator p15 (Homo sapiens) (UniProt P53999); assay: as above
[30] = target: Alcohol dehydrogenase 1B (Homo sapiens) (UniProt P00325); assay: as above
[31] = target: Delta-aminolevulinic acid dehydratase (Homo sapiens) (UniProt P13716); assay: as above
[32] = target: 78 kDa glucose-regulated protein (Homo sapiens) (UniProt P11021); assay: as above
[33] = target: Cytosolic 10-formyltetrahydrofolate dehydrogenase (Homo sapiens) (UniProt O75891); assay: as above
[34] = target: Alcohol dehydrogenase 1A (Homo sapiens) (UniProt P07327); assay: as above
[35] = target: 14-3-3 protein epsilon (Homo sapiens) (UniProt P62258); assay: as above
[36] = target: Transitional endoplasmic reticulum ATPase (Homo sapiens) (UniProt P55072); assay: as above

Sequence of Membrane-associated progesterone receptor component 1 (Homo sapiens) (O00264 whole entry): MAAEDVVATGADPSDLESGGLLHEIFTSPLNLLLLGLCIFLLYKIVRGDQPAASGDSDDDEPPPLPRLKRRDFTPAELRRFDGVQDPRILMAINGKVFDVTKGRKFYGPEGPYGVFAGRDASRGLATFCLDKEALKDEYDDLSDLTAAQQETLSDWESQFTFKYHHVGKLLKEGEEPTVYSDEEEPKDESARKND
Sequence of Alpha-actinin-4 (Homo sapiens) (O43707 whole entry): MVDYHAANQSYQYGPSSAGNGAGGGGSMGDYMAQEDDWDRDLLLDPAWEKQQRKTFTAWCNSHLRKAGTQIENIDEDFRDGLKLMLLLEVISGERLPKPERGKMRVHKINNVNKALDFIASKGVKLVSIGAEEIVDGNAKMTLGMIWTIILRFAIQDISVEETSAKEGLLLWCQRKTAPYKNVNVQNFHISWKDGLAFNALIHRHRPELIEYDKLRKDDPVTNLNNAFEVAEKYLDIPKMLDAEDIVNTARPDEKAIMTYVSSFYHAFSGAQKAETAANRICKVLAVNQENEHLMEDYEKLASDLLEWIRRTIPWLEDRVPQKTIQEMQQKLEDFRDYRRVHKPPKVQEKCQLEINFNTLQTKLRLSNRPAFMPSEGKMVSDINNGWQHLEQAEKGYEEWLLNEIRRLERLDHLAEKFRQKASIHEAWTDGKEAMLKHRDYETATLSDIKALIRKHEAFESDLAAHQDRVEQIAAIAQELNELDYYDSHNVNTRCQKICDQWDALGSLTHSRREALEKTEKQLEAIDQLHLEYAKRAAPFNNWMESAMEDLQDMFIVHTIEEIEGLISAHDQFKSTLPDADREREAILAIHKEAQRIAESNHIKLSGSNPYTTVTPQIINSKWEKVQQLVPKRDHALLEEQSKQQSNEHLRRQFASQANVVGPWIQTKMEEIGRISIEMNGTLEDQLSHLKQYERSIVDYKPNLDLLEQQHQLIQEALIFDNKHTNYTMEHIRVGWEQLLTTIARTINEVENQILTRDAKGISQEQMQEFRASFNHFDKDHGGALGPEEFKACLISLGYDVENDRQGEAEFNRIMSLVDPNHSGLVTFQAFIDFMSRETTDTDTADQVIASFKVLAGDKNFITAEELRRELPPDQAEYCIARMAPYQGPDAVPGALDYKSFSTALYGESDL
Sequence of Alcohol dehydrogenase 4 (Homo sapiens) (P08319 whole entry): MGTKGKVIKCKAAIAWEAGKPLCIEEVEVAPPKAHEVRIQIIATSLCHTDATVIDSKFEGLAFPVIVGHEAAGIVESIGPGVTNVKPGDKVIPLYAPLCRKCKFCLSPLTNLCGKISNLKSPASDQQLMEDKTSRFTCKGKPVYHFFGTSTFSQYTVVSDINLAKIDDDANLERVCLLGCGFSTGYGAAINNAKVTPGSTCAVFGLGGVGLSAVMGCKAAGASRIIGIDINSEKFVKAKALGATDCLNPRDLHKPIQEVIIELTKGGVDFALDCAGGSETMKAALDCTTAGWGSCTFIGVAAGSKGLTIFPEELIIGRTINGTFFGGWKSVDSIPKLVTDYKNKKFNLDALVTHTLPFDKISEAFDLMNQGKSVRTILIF
Sequence of Protein disulfide-isomerase (Homo sapiens) (P07237 18-508 limits assumed): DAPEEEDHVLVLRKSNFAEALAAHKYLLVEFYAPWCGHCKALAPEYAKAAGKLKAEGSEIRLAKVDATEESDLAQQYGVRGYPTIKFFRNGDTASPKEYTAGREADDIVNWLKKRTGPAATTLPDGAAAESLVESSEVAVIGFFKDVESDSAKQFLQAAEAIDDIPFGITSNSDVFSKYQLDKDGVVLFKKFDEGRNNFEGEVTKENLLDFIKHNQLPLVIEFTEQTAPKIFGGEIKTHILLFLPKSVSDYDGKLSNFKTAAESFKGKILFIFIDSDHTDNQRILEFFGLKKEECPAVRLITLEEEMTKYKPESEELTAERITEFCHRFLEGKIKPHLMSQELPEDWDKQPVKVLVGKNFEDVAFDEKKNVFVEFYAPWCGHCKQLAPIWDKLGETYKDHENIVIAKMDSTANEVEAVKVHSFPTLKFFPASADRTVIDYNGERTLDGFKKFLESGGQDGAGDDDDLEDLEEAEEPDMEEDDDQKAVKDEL
Sequence of Cytochrome b5 (Homo sapiens) (P00167 2-134 limits assumed): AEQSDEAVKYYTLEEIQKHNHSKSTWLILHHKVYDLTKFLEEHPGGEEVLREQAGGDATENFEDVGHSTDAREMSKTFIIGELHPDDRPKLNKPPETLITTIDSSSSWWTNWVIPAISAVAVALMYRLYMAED
Sequence of Transitional endoplasmic reticulum ATPase (Homo sapiens) (P55072 2-806 limits assumed): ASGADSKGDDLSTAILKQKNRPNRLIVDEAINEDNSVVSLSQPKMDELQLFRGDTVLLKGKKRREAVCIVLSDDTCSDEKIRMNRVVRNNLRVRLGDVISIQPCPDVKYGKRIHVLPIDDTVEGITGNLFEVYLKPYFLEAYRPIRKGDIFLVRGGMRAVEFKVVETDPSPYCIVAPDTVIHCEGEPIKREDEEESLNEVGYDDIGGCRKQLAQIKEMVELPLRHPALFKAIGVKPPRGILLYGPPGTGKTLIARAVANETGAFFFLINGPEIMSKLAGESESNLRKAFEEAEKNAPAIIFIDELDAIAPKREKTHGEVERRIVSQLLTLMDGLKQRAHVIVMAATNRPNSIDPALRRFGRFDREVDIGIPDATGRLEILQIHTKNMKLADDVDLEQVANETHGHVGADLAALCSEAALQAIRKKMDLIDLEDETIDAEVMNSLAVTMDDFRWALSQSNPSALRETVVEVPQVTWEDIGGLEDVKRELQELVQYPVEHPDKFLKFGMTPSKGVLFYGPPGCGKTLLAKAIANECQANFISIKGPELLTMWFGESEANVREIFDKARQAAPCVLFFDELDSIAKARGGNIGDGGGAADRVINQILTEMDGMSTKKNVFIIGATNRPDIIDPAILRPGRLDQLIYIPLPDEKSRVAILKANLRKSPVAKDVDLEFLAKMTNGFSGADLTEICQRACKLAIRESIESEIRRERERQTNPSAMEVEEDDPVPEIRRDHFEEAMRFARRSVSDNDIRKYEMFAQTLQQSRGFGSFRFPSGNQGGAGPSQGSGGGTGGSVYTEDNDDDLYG
Sequence of Protein disulfide-isomerase A4 (Homo sapiens) (P13667 21-645 limits assumed): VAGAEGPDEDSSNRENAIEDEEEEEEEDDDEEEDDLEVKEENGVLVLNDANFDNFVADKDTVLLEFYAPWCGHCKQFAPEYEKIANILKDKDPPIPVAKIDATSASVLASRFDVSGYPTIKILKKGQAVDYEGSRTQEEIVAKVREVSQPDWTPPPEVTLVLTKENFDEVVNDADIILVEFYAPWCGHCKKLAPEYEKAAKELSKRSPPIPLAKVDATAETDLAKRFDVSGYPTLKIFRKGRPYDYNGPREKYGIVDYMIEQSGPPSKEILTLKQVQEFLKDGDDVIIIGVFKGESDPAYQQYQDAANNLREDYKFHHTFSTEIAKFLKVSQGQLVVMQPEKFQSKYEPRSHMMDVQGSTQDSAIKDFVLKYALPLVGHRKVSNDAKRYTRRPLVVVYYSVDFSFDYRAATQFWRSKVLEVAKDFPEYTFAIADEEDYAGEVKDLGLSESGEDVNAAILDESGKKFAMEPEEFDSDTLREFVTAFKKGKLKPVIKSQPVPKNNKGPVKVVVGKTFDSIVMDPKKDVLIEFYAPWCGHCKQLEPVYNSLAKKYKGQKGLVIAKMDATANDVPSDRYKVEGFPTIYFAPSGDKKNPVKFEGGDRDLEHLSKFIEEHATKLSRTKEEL
Sequence of Calreticulin (Homo sapiens) (P27797 18-417 limits assumed): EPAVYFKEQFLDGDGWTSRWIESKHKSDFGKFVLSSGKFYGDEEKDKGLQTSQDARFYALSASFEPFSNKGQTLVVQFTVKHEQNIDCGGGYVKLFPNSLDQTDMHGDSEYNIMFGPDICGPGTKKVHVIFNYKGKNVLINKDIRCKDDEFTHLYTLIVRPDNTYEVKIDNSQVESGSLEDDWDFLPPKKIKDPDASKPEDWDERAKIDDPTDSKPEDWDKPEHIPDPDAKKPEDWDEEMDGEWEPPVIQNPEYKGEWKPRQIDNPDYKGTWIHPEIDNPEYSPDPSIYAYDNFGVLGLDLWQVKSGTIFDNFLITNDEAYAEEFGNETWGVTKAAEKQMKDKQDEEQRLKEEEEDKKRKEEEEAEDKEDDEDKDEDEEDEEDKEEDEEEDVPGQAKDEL
Sequence of Cytochrome b-c1 complex subunit 6, mitochondrial (Homo sapiens) (P07919 14-91 limits assumed, one chain of several): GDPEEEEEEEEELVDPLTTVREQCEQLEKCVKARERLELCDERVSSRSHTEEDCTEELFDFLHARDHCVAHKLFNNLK
Sequence of Tropomyosin alpha-4 chain (Homo sapiens) (P67936 2-248 limits assumed): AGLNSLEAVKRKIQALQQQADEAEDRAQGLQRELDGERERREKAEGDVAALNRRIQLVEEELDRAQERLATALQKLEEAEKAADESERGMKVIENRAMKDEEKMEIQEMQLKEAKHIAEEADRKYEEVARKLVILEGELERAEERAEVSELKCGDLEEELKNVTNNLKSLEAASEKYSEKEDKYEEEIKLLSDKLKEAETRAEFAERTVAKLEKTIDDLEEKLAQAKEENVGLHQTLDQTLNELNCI
Sequence of Hepatoma-derived growth factor (Homo sapiens) (P51858 whole entry): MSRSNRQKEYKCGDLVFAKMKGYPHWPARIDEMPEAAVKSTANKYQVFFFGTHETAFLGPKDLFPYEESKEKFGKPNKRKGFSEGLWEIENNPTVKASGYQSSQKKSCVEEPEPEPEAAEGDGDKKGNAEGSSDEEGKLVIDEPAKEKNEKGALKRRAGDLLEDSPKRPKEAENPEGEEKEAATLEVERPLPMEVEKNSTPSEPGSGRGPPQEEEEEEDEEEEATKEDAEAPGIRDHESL
Sequence of Enoyl-CoA hydratase domain-containing protein 2, mitochondrial (Homo sapiens) (Q86YB7 36-292 limits assumed): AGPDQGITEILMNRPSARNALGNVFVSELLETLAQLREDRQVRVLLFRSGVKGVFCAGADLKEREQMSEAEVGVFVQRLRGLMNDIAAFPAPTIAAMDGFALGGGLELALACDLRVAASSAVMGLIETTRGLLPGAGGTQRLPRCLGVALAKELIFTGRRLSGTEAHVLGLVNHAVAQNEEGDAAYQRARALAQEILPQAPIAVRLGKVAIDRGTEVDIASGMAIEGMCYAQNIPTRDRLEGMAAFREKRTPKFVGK
Sequence of Parathymosin (Homo sapiens) (P20962 2-102 limits assumed): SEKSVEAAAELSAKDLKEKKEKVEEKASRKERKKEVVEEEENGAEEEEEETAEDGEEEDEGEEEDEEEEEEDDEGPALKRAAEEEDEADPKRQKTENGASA

Substance sPIF-1(15) (peptide) has a % Coverage of the unique peptides observed [1] of 53%, a % Coverage of the unique peptides observed [2] of 52% and a % Coverage of the unique peptides observed [3] of 47%. The % Coverage of the unique peptides observed [4] was 48%, the % Coverage of the unique peptides observed [5] was 76% and the % Coverage of the unique peptides observed [6] was 46%. The % Coverage of the unique peptides observed [7] was 49%, the % Coverage of the unique peptides observed [8] was 53% and the % Coverage of the unique peptides observed [9] was 63%. It also gave a % Coverage of the unique peptides observed [10] of 45%, a % Coverage of the unique peptides observed [11] of 64% and a % Coverage of the unique peptides observed [12] of 52%. It also gave a % Coverage of the unique peptides observed [13] of 58%, a % Coverage of the unique peptides observed [14] of 51% and a % Coverage of the unique peptides observed [15] of 31%. For the same substance, the % Coverage of the unique peptides observed [16] was 29%, the % Coverage of the unique peptides observed [17] was 82% and the % Coverage of the unique peptides observed [18] was 46%. It also gave a % Coverage of the unique peptides observed [19] of 42%, a % Coverage of the unique peptides observed [20] of 40% and a % Coverage of the unique peptides observed (Vimentin (Homo sapiens)) of 52%. It also gave a % Coverage of the unique peptides observed [21] of 19%, a % Coverage of the unique peptides observed [22] of 75% and a % Coverage of the unique peptides observed [23] of 46%. The % Coverage of the unique peptides observed [24] was 52%, the % Coverage of the unique peptides observed [25] was 43% and the % Coverage of the unique peptides observed [26] was 61%. The % Coverage of the unique peptides observed [27] was 43%, the % Coverage of the unique peptides observed [28] was 70% and the % Coverage of the unique peptides observed [29] was 34%. For the same substance, the % Coverage of the unique peptides observed [30] was 66%, the % Coverage of the unique peptides observed [31] was 25% and the % Coverage of the unique peptides observed [32] was 48%. It also gave a % Coverage of the unique peptides observed [33] of 52%, a % Coverage of the unique peptides observed [34] of 54% and a % Coverage of the unique peptides observed [35] of 64%. The % Coverage of the unique peptides observed [36] was 52%.
